The results in this text go back to patent US20170285043A1 (WHITEHEAD INSTITUTE FOR BIOMEDICAL RESEARCH, published 2017).

To fix the notation:
B1: FLAG-Sestrin1 (other)
chain: MAEGENEVRWDGLCSRDSTTRETALENIRQTILRKTEYLRSVKETPHRPSDGLSNTESSDGLNKLLAHLLMLSKRCPFKDVREKSEFILKSIQELGIRIPRPLGQGPSRFIPEKEILQVGSEDAQMHALFADSFAALGRLDNITLVMVFHPQYLESFLKTQHYLLQMDGPLPLHYRHYIGIMAAARHQCSYLVNLHVNDFLHVGGDPKWLNGLENAPQKLQNLGELNKVLAHRPWLITKEHIEGLLKAEEHSWSLAELVHAVVLLTHYHSLASFTFGCGISPEIHCDGGHTFRPPSVSNYCICDITNGNHSVDEMPVNSAENVSVSDSFFEVEALMEKMRQLQECRDEEEASQEEMASRFEIEKRESMFVFSSDDEEVTPARAVSRHFEDTSYGYKDFSRHGMHVPTFRVQDYCWEDHGYSLVNRLYPDVGQLIDEKFHIAYNLTYNTMAMHKDVDTSMLRRAIWNYIHCMFGIRYDDYDYGEINQLLDRSFKVYIKTVVCTPEKVTKRMYDSFWRQFKHSEKVHVNLLLIEARMQAELLYALRAITRYMT
notes: also called recombinant, FLAG-tagged Sestrin1; not shown: FLAG tag
B2: FLAG-Sestrin3 (other)
chain: MNRGGGSPSAAANYLLCTNCRKVLRKDKRIRVSQPLTRGPSAFIPEKEVVQANTVDERTNFLVEEYSTSGRLDNITQVMSLHTQYLESFLRSQFYMLRMDGPLPLPYRHYIAIMAAARHQCSYLINMHVDEFLKTGGIAEWLNGLEYVPQRLKNLNEINKLLAHRPWLITKEHIQKLVKTGENNWSLPELVHAVVLLAHYHALASFVFGSGINPERDPEISNGFRLISVNNFCVCDLANDNNIENASLSGSNFGIVDSLSELEALMERMKRLQEEREDEEASQEEMSTRFEKEKKESLFVVSGDTFHSFPHSDFEDDMIITSDVSRYIEDPGFGYEDFARRGEEHLPTFRAQDYTWENHGFSLVNRLYSDIGHLLDEKFRMVYNLTYNTMATHEDVDTTMLRRALFNYVHCMFGIRYDDYDYGEVNQLLERSLKVYIKTVTCYPERTTKRMYDSYWRQFKHSEKVHVNLLLMEARMQAELLYALRAITRHLT
notes: also called recombinant, FLAG-tagged Sestrin3; not shown: FLAG tag
B3: FLAG-Sestrin2 (other)
chain: MIVADSECRAELKDYLRFAPGGVGDSGPGEEQRESRARRGPRGPSAFIPVEEVLREGAESLEQHLGLEALMSSGRVDNLAVVMGLHPDYFTSFWRLHYLLLHTDGPLASSWRHYIAIMAAARHQCSYLVGSHMAEFLQTGGDPEWLLGLHRAPEKLRKLSEINKLLAHRPWLITKEHIQALLKTGEHTWSLAELIQALVLLTHCHSLSSFVFGCGILPEGDADGSPAPQAPTPPSEQSSPPSRDPLNNSGGFESARDVEALMERMQQLQESLLRDEGTSQEEMESRFELEKSESLLVTPSADILEPSPHPDMLCFVEDPTFGYEDFTRRGAQAPPTFRAQDYTWEDHGYSLIQRLYPEGGQLLDEKFQAAYSLTYNTIAMHSGVDTSVLRRAIWNYIHCVFGIRYDDYDYGEVNQLLERNLKVYIKTVACYPEKTTRRMYNLFWRHFRHSEKVHVNLLLLEARMQAALLYALRAITRYMT
notes: Transiently or stably expressed in HEK-293T cells; also called FLAG-tagged wild-type Sestrin2; wild-type Sestrin2; not shown: FLAG tag
B4: endogenous Sestrin2 (other)
chain: B3 chain
notes: Endogenous protein of human HEK-293T cells
B5: metap2 control protein (enzyme, UniProt P50579 1-478, looked up, not shown: small tags and cut ends)
chain: MAGVEEVAASGSHLNGDLDPDDREEGAASTAEEAAKKKRRKKKKSKGPSAAGEQEPDKESGASVDEVARQLERSALEDKERDEDDEDGDGDGDGATGKKKKKKKKKRGPKVQTDPPSVPICDLYPNGVFPKGQECEYPPTQDGRTAAWRTTSEEKKALDQASEEIWNDFREAAEAHRQVRKYVMSWIKPGMTMIEICEKLEDCSRKLIKENGLNAGLAFPTGCSLNNCAAHYTPNAGDTTVLQYDDICKIDFGTHISGRIIDCAFTVTFNPKYDTLLKAVKDATNTGIKCAGIDVRLCDVGEAIQEVMESYEVEIDGKTYQVKPIRNLNGHSIGQYRIHAGKTVPIVKGGEATRMEEGEVYAIETFGSTGKGVVHDDMECSHYMKNFDVGHVPIRLPRTKHLLNVINENFGTLAFCRRWLDRLGESKYLMALKNLCDLGIVDPYPPLCDIKGSYTAQFEHTILLRPTCKEVVSRGDDY
notes: Control protein; also called FLAG-Metap2; FLAG-metap2

The target in experiment [1] is B5. The experiment in a line: anti-FLAG co-immunoprecipitation, transient co-expression in HEK-293T, immunoblot (FIG. 1B). As for the experimental part: (§1) Two million HEK-293T cells were plated in 10 cm culture dishes and grown. Twenty-four hours later, cells were transfected via the polyethylenimine method (Boussif et al., 1995) with one or more of the pRK5-based cDNA expression plasmids in the following amounts: 300 ng FLAG-Metap2, 100 ng FLAG-WDR24, 50 ng FLAG-Sestrin1, 25 ng FLAG-Sestrin2, 200 ng FLAG-Sestrin3, 2 ng of FLAG-S6K1, or 200 ng each of HA-Mios, HA-WDR59, HA-WDR24, HA-Sec13, HA-Seh1L, HA-Depdc5, HA-Npr13, or HA-Npr12. The total amount of plasmid DNA in each transfection was normalized to 5 μg with empty pRK5.
(§2) The beads were washed 3 times with lysis buffer containing 500 mM NaCl. In the case of transient cotransfection assays to explore the interaction of the Sestrins with GATOR2, beads were incubated in the final salt wash for 30 minutes to reduce non-specific binding.
(In western blotting, separated proteins are transferred to a membrane and probed.)

Experiment [2] deals with T1, GATOR1, recombinant (HA-Depdc5, HA-Npr13, HA-Npr12) (UniProt O75140 1-1603; Q8WTW4 1-380; Q12980 1-569, limits assumed).
T1 construct: also called GATOR1 multi-protein complex; not shown: HA tag
T1 sequence (O75140 whole entry, chain 1 of 3): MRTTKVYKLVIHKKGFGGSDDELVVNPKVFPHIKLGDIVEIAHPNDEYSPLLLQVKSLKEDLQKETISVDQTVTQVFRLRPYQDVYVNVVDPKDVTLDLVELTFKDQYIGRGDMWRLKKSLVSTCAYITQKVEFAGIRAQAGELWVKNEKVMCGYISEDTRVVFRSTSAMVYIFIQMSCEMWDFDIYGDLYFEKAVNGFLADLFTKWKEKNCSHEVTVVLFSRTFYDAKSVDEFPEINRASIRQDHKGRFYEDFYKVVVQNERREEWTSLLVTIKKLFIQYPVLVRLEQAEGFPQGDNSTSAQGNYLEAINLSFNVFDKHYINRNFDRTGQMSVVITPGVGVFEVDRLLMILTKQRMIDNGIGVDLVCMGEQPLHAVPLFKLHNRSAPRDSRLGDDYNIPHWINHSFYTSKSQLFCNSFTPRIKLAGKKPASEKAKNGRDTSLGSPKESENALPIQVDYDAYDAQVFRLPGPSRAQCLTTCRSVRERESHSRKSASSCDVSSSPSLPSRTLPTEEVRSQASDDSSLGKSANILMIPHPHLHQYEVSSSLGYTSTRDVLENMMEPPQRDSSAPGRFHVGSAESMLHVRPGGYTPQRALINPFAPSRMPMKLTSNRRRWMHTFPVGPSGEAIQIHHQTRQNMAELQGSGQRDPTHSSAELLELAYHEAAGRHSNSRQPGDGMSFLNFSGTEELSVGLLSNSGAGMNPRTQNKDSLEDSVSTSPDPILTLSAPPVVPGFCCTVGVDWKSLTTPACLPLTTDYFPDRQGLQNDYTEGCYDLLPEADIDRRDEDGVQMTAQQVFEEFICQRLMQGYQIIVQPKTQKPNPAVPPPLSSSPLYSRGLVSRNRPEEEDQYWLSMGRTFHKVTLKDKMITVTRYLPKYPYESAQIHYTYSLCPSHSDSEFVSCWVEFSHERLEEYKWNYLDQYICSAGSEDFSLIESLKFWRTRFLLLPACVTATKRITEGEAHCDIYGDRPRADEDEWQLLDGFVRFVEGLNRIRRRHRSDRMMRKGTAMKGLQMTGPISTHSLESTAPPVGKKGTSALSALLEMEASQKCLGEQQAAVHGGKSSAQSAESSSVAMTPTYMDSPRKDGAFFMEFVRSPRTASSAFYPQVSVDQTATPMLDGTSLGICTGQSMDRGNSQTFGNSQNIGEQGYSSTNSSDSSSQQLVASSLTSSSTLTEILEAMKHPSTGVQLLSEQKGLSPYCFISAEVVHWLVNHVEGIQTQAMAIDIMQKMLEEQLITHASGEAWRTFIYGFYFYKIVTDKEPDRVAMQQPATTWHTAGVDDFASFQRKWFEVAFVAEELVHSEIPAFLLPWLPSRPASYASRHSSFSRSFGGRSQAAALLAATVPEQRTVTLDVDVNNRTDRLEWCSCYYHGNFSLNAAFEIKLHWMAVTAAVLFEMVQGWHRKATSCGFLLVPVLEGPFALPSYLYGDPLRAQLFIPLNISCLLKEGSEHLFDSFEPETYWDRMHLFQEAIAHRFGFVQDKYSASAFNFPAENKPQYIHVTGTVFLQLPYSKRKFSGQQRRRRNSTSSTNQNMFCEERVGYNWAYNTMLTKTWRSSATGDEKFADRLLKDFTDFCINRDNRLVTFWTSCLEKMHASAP
T1 sequence (Q8WTW4 whole entry, chain 2 of 3): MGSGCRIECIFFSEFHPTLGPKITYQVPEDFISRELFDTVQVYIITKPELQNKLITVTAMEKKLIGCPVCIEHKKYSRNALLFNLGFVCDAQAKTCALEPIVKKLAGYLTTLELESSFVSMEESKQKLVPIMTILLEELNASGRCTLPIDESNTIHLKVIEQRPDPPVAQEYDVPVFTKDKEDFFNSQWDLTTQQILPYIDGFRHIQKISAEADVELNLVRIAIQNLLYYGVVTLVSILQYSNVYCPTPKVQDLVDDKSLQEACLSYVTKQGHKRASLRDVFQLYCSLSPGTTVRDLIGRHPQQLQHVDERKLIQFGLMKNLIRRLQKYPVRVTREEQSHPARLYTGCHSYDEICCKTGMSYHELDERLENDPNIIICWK
T1 sequence (Q12980 whole entry, chain 3 of 3): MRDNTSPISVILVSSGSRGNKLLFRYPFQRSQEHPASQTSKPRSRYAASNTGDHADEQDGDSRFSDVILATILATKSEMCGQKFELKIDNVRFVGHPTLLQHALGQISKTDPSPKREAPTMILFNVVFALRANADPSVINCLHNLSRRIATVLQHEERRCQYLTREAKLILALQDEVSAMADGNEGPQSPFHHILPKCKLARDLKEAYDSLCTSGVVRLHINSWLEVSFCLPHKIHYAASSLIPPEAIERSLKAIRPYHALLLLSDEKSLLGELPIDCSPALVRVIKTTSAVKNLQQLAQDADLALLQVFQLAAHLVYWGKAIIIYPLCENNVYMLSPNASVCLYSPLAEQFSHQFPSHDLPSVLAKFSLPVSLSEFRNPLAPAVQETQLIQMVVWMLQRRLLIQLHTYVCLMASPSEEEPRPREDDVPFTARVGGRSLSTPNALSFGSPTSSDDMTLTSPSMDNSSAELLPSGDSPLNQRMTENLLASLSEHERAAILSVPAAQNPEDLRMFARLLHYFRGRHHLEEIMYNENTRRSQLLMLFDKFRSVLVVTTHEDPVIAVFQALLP
The description is as above. As for the experimental part: as §1, §2

Experiment [3] has as its target T2, FLAG-DEPDCS, a GATOR1 component (UniProt O75140 1-1603, limits assumed).
T2 construct: also called FLAG-DEPDC5; not shown: FLAG tag
Put plainly: anti-FLAG co-immunoprecipitation from stably expressing HEK-293T, immunoblot (FIG. 5A).

For experiment [4], the target named is B2. Put plainly: anti-FLAG co-immunoprecipitation, transient co-expression in HEK-293T, immunoblot (FIG. 1B). As for the experimental part:
as §1, §2

The target of experiment [5] is B3. Described as above. Here is the method: as §1, §2

T2 sequence (O75140 whole entry): as the sequence (O75140 whole entry, chain 1 of 3) above

For B1, the binding result in experiment [1] and in experiment [2] was “no binding” each time.

As for B2, the binding result in experiment [2] is reported as “no binding”.

On to B3, for which the binding result in experiment [2] was “no binding”.

For the molecule B4, in experiment [3], the binding result is “no binding”.

As to B5, the binding result in experiment [4] and in experiment [5] was “no binding” each time.
